Measured values as given in US20190233521A1 (GENEFRONTIER, published 2019).

T1: human CD69 recombinant protein (extracellular region 62-199, homodimer) (human, UniProt Q07108 62-199)
T1 construct: Expressed in the E. coli periplasm from cDNA NM_001781; also called human CD69 homodimer protein; extracellular domain of human CD69
T1 sequence: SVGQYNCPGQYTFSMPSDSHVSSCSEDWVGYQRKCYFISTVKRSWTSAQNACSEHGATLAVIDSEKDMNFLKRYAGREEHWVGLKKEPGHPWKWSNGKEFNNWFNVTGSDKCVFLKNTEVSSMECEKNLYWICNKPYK

T2: human CD69 partial peptide #25 (LKRYAGREEHWV) (human)
T2 construct: Immobilized on a PepSpots peptide array (JPT)
T2 peptide: LKRYAGREEHWV

T3: human CD69 partial peptide #26 (YAGREEHWVGLK) (human)
T3 construct: Immobilized on a PepSpots peptide array (JPT)
T3 peptide: YAGREEHWVGLK

T4: human CD69 partial peptide #24 (MNFLKRYAGREE) (human)
T4 construct: Immobilized on a PepSpots peptide array (JPT)
T4 peptide: MNFLKRYAGREE


Legend:
[1] = target: T1, human CD69 recombinant protein …; assay: Scatchard plot; solution equilibrium with antigen, free IgG measured by ELISA
Protocol: In the present specification, the KD value relating to the binding affinity of the antibody of the present invention to human CD69 is calculated according to the principle described in Immunoassays (OXFORD UNIVERSITY PRESS, 2000) using a scatchard plot method. An antibody is incubated with various concentrations of antigen (extracellular domain of human CD69) at room temperature for 2 hr until equilibrium, and the amount of free antibody present in the incubation solutions is measured by the ELISA method. The binding constant and dissociation constant (KD value) are determined based on the changes in the amount of free antibody in each equilibrated sample. The antibody concentration during equilibration reaction is to be 0.015 μg/ml, and an ELISA plate for the measurement of the amount of free antibody is to be immobilized with the antigen at 1 μg/ml.
(§1) The affinity of the prepared IgG clones for human CD69 was evaluated by scatchard plot. To be specific, it was calculated according to the principle described in Immunoassays (OXFORD UNIVERSITY PRESS, 2000). An antibody was incubated with various concentrations of antigen at room temperature for 2 hr until it reaches equilibrium, and the amount of free antibody present in the incubation liquids was measured by the ELISA method. The binding constant and dissociation constant (KD value) were determined based on the changes in the amount of free antibody in each equilibrate sample. The concentration of the antibody in the equilibration reaction was set to […], and an ELISA plate immobilized with the antigen at 1 μg/ml was used for the measurement of the amount of free antibody.

[2] = target: T1, human CD69 recombinant protein …; assay: Scatchard plot KD; reference 160-c76 IgG
Protocol: as §1

[3] = target: T2, human CD69 partial peptide #25 …; assay: peptide array (PepSpots), HRP-labelled antibody
Excerpt: (§2) To be specific, as shown in the following Table, a peptide array consisting of peptides having the residue number of 12 amino acid residues and an offset of 3 amino acid residues was produced for a sequence covering the extracellular domain of human CD69 (60-199) (PepSpots, manufactured by JPT). The peptide array and the anti-human CD69 antibody were reacted according to the manual of JPT. Anti-human CD69 antibodies labeled with HRP (Peroxidase Labeling Kit-NH2, manufactured by Dojindo) were used.

[4] = target: T3, human CD69 partial peptide #26 …; assay: peptide array (PepSpots), HRP-labelled antibody
Excerpt: as §2

[5] = target: T4, human CD69 partial peptide #24 …; assay: peptide array (PepSpots), HRP-labelled antibody
Excerpt: as §2

| Binder | Kd [1] | fold increase of affinity against 160-c76 [2] | binding result [3] | binding result [4] | binding result [5] |
| --- | --- | --- | --- | --- | --- |
| 234-61 IgG antibody (IgG4) (antibody, V domains shown) VH: QVQPGGSLRLSCAASGFTFSNFVMHWVRQAPGKGLEWVSSISGSSSSTYYADSVKGRFTISRDNSKNTLYLQMNSLRAEDTAVYYCARYYYASFDYWGQGTLVTVSS VL: DIELTQPPSVSVAPGQTARISCSGDSLGSKYVYWYQQKPGQAPVVVIYGDSKRPSGIPERFSGSNSGNTATLTISGTQAEDEADYYCQSYTSFTTKIVFGGGTKLTVLG | 1.13 nM | 9 fold | – | – | – |
| 160-c76 IgG antibody (IgG4) (antibody, V domains shown, Full IgG made in HEK293T) VH: QVQPGGSLRLSCAASGFTFSNFVMHWVRQAPGKGLEWVSSISGSSSSTYYADSVKGRFTISRDNSKNTLYLQMNSLRAEDTAVYYCARYYYASFDYWGQGTLVTVSS VL: DIELTQPPSVSVAPGQTARISCSGDSLGSKYVYWYQQKPGQAPVVVIYGDSKRPSGIPERFSGSNSGNTATLTISGTQAEDEADYYCQSYDSNIMVFGGGTKLTVLG | 27.8 nM | – | – | – | – |
| 160-c7 IgG antibody (IgG4) (antibody, V domains shown, Full IgG made in HEK293T; HRP-labelled in the peptide array) VH: QVQLVQSGAEVKKPGASVKVSCKASGYTFTSYDMHWVRQAPGQGLEWMGWINPYSGNTNYAQKFQGRVTMTRDTSISTAYMELSSLRSEDTAVYYCARMYYDKDYLSWGTDSWGQGTLVTVSS VL: DIQMTQSPSSLSASVGDRVTITCRASQDISSYLNWYQQKPGKAPKLLIYGASNLQSGVPSRFSGSGSGTDFTLTISSLQPEDFAVYYCQQYSDYPHTFGQGTKVEIKR | 47.6 nM | – | – | binds | – |

Further lines, results first:

| Kd [1] | fold increase of affinity against 160-c76 [2] | binding result [3] | binding result [4] | binding result [5] | Binder |
| --- | --- | --- | --- | --- | --- |
| 2.83 nM | ≥ 9 fold | – | – | – | 234-83 IgG antibody (IgG4) (antibody, V domains shown, HRP-labelled in the peptide array) VH: QVQPGGSLRLSCAASGFTFSNFVMHWVRQAPGKGLEWVSSISGSSSSTYYADSVKGRFTISRDNSKNTLYLQMNSLRAEDTAVYYCARYYYASFDYWGQGTLVTVSS VL: DIELTQPPSVSVAPGQTARISCSGDSLGSKYVYWYQQKPGQAPVVVIYGDSKRPSGIPERFSGSNSGNTATLTISGTQAEDEADYYCGSYTTGAKSHVFGGGTKLTVLG |
| 7.58 nM | – | binds | binds | binds | 160-c103 IgG antibody (IgG4) (antibody, V domains shown, Full IgG made in HEK293T; HRP-labelled in the peptide array) VH: QVQLVESGGGLVQPGGSLRLSCAASGFTFSNYYMSWVRQAPGKGLEWVSVISYDGISTHYADSVKGRFTISRDNSKNTLYLQMNSLRAEDTAVYYCARYIGNSLYMDFWGQGTLVTVSS VL: DIVLTQSPATLSLSPGERATLSCRASQSVSSYLAWYQQKPGQAPRLLIYGTSIRATGVPARFSGSGSGTDFTLTISSLEPEDFATYYCQQEYSSPPTFGQGTKVEIKR |
